Positions count from the first letter of the chain named. Names and notes keep the numbering of the source. Values joined by “and” are separate entries in the source; they are usually repeats but may differ in a detail not shown here. Equal entries are not always repeated.
B1: wild type glutamate oxaloacetate transaminase 1 (WT-GOT1) (enzyme, human, UniProt P17174-1 1-413, looked up)
chain: MAPPSVFAEVPQAQPVLVFKLTADFREDPDPRKVNLGVGAYRTDDCHPWVLPVVKKVEQKIANDNSLNHEYLPILGLAEFRSCASRLALGDDSPALKEKRVGGVQSLGGTGALRIGADFLARWYNGTNNKNTPVYVSSPTWENHNAVFSAAGFKDIRSYRYWDAEKRGLDLQGFLNDLENAPEFSIVVLHACAHNPTGIDPTPEQWKQIASVMKHRFLFPFFDSAYQGFASGNLERDAWAIRYFVSEGFEFFCAQSFSKNFGLYNERVGNLTVVGKEPESILQVLSQMEKIVRITWSNPPAQGARIVASTLSNPELFEEWTGNVKTMADRILTMRSELRARLEALKTPGTWNHITDQIGMFSFTGLNPKQVEYLVNEKHIYLLPSGRINVSGLTTKNLDYVATSIHEAVTKIQ
B2: GOT1 S256A mutant (enzyme, human, UniProt P17174-1 1-413, looked up)
chain: B1 chain with S256A
B3: GOT1 T110A mutant (enzyme, human, UniProt P17174-1 1-413, looked up)
chain: B1 chain with T110A

Molecular target: the molecule itself
Experiment: SEC

Row | Protein | stoichiometry N
1 | B1 | 2 and 4
2 | B2 | 2
3 | B3 | 2

Source: PMC6487875 (Biochemistry, 2018)
